Results taken from PMC6760448, “The DRS–AIMP2–EPRS subcomplex acts as a pivot in the multi-tRNA synthetase complex” (IUCrJ, 2019).

Columns and labels:
[1] = target: the molecule itself; assay: crystal structure; DRS–AIMP2-DX2-S34–EPRSGST (DA2E) subcomplex, 3.6 Å, space group P6_(1), two subcomplexes in the asymmetric unit; crystals at 22°C from sodium/potassium phosphate, 0.1 M CAPS pH 10.5, lithium sulfate
[2] = target: T1, N-terminally truncated human AIMP2 splice variant lacking exon 2 (residues Ser34–Gln45 and Asp115–Lys320) (human, UniProt Q13155 34-45; Q13155 115-320); assay: SEC; separately transformed strains pooled in one culture, proteins met on cell disruption by sonication; His6 affinity (HiTrap Chelating HP), then HiLoad 16/600 Superdex 200 pg in 50 mM HEPES–NaOH pH 8.0, 200 mM NaCl, 5 mM DTT, 1% glycerol; SDS–PAGE of the highest peak; settings: partners not purified
T1 construct: human AIMP2, residues Asp115–Lys320 (exons 3 and 4, GST domain); joined directly to Gln45 as in the splice variant AIMP2-DX2 that lacks exon 2; also called AIMP2-DX2-S34; AIMP2GST; source: E. coli BL21-CodonPlus (DE3)-RIPL; culture pooled with those of the partners, co-purified (HiTrap Chelating HP, Superdex 200); not shown: His6, C-terminal, kept
T1 sequence (looked up): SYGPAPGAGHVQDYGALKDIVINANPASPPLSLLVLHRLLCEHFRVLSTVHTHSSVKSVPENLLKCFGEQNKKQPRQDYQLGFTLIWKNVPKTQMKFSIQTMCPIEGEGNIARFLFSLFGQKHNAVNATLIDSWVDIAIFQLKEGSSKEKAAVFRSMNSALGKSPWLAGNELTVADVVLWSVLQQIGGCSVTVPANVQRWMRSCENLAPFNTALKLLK

B1: N-terminally truncated human aspartyl-tRNA synthetase (residues Ala21–Pro501) (enzyme, UniProt P14868 21-501, looked up)
chain: AEDYAKERYGISSMIQSQEKPDRVLVRVRDLTIQKADEVVWVRARVHTSRAKGKQCFLVLRQQQFNVQALVAVGDHASKQMVKFAANINKESIVDVEGVVRKVNQKIGSCTQQDVELHVQKIYVISLAEPRLPLQLDDAVRPEAEGEEEGRATVNQDTRLDNRVIDLRTSTSQAVFRLQSGICHLFRETLINKGFVEIQTPKIISAASEGGANVFTVSYFKNNAYLAQSPQLYKQMCICADFEKVFSIGPVFRAEDSNTHRHLTEFVGLDIEMAFNYHYHEVMEEIADTMVQIFKGLQERFQTEIQTVNKQFPCEPFKFLEPTLRLEYCEALAMLREAGVEMGDEDDLSTPNEKLLGHLVKEKYDTDFYILDKYPLAVRPFYTMPDPRNPKQSNSYDMFMRGEEILSGAQRIHDPQLLTERALHHGIDLEKIKAYIDSFRFGAPPHAGGGIGLERVTMLFLGLHNVRQTSMFPRDPKRLTP
notes: human aspartyl-tRNA synthetase (DRS), cytosolic, residues Ala21–Pro501; Homodimer in the crystal structure of the DA2E subcomplex; No removal of the His6 tag is described; also called DRS; source: E. coli Rosetta2 (DE3)pLysS; culture pooled with those of the partners, co-purified (HiTrap Chelating HP, Superdex 200); not shown: His6, N-terminal, kept
binding result [1]: binds

B2: C-terminally truncated human EPRSGST (Met1–Gln157) (domain or fragment, UniProt P07814 1-157, looked up)
chain: MATLSLTVNSGDPPLGALLAVEHVKDDVSISVEEGKENILHVSENVIFTDVNSILRYLARVATTAGLYGSNLMEHTEIDHWLEFSATKLSSCDSFTSTINELNHCLSLRTYLVGNSLSLADLCVWATLKGNAAWQEQLKQKKAPVHVKRWFGFLEAQ
notes: human glutamyl-prolyl-tRNA synthetase (EPRS), GST domain, residues Met1–Gln157; also called GST domain of glutamyl-prolyl-tRNA synthetase; source: E. coli BL21-CodonPlus (DE3)-RIPL; culture pooled with those of the partners, co-purified (HiTrap Chelating HP, Superdex 200); not shown: His6, C-terminal, kept
binding result [2]: binds
